In assay [1] the target is T1, Tau(pS404) peptide (human).
T1 sequence (peptide, only S404 phosphorylated (pS404)): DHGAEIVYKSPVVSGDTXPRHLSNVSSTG
Description: direct ELISA, TauS404 coated at 1 ug/mL, antibody titrated. A general note: In an ELISA, binding on a coated surface is turned into a signal by an enzyme label.

Assay [2] concerns the target T1, Tau(pS404) peptide (human). Description: competition ELISA, TauS404 coated at 1 ug/mL, VY014 titrated; peptide 12 at 1 µg/mL as competitor in solution.
Assay [3] deals with T1, Tau(pS404) peptide (human). Description: competition ELISA, TauS404 coated at 1 ug/mL, VY014 titrated; AC04 peptide at 1 µg/mL as competitor in solution.

In general, EC50 (read off the curve) refers to the concentration at which the effect is half-maximal. A high value points to a less potent agent.

B1: VY014 (antibody, V domains shown)
VH: EVQLVESGGGLVQPGGSLRLSCAASGFTFNNYDMHWVRQAAGKGLEWVSTIGAAGDTYYPGSVKGRFIISRENAKNSLYLQMNSLRAGDTAVYYCARAGETLEGATIGYYYGMDVWGQGTTVTVSS
VL: DILMTQSPLSLPVTPGEPASISCRSSQSLLHSNGYNYLDWYLQKPGQSPQLLIYLGSNRASGVPDRFSGSGSGTDFTLKFSRVEAEDVGLYYCMQALQIPLTFGGGTKVEIK
B1: the 50% effective concentration (EC50 (read off the curve)) in assay [1] was determined as 0.06 nM; in assay [2] it was 0.2 nM; in assay [3] it was 0.08 nM.
